PMC8679000, “Biochemical Characterizations of Human TMPK Mutations Identified in Patients with Severe Microcephaly: Single Amino Acid Substitutions Impair Dimerization and Abolish Their Catalytic Activity” (ACS Omega, 2021)

Molecular target: the molecule itself
Test: SEC; Superdex G200; 10 mM Tris/HCl pH 7.6, 100 mM NaCl, 5 mM MgCl2, 5 mM DTT; 200 ug protein injected, 0.4 mL/min; 0.4 mL fractions analysed by TMPK activity and Western blot; size markers BSA, ovalbumin, cytochrome C

B1: wild-type human deoxythymidylate kinase (TMPK) (enzyme, UniProt P23919 1-212, looked up)
chain: MAARRGALIVLEGVDRAGKSTQSRKLVEALCAAGHRAELLRFPERSTEIGKLLSSYLQKKSDVEDHSVHLLFSANRWEQVPLIKEKLSQGVTLVVDRYAFSGVAFTGAKENFSLDWCKQPDVGLPKPDLVLFLQLQLADAAKRGAFGHERYENGAFQERALRCFHQLMKDTTLNWKMVDASKSIEAVHEDIRVLSEDAIRTATEKPLGELWK
notes: The pET-14b vector with N-terminal 6xHis tag is stated for the mutants only; the WT was 'run in parallel'; also called WT TMPK; WT; not shown: His6 (inferred from the mutants' construct)
stoichiometry N: 2
